Patent US20200062856A1 (XDCEXPLORER SHANGHAI, published 2020)

Columns and labels:
[1] = biological target: mouse TPBG protein, full-length, on the cell surface (mouse) (UniProt Q9Z0L0); assay: FACS, CHOk1-mTPBG 3A3 cells
[2] = biological target: human TPBG protein, full-length, on the cell surface (human) (UniProt Q13641); assay: FACS, CHOk1-hTPBG 3A2F1 cells
[3] = biological target: cynomolgus TPBG protein, full-length, on the cell surface (cynomolgus) (UniProt Q4R8Y9); assay: FACS, CHOk1-cTPBG 3F13G4 cells
[4] = biological target: human TPBG protein, full-length, on the cell surface (human) (UniProt Q13641); assay: FACS, HEK293 clone 293F-hTPBG 4A8
[5] = biological target: human TPBG protein, full-length, on the cell surface (human) (UniProt Q13641); assay: FACS, HEK293 clone 293F-hTPBG 4A9
[6] = biological target: human TPBG protein, full-length, on the cell surface (human) (UniProt Q13641); assay: FACS, HEK293 clone 293F-hTPBG 4B9
[7] = biological target: human TPBG protein, full-length, on the cell surface (human) (UniProt Q13641); assay: FACS, HEK293 clone 293F-hTPBG 4C3
[8] = biological target: human TPBG protein, full-length, on the cell surface (human) (UniProt Q13641); assay: FACS, HEK293 clone 293F-hTPBG 4C5
[9] = biological target: human TPBG protein, full-length, on the cell surface (human) (UniProt Q13641); assay: FACS, HEK293 clone 293F-hTPBG 4E1
[10] = biological target: human TPBG protein, full-length, on the cell surface (human) (UniProt Q13641); assay: FACS, HEK293 clone 293F-hTPBG 4F9
[11] = biological target: human TPBG protein, full-length, on the cell surface (human) (UniProt Q13641); assay: FACS, HEK293 clone 293F-hTPBG 4G1
[12] = biological target: human TPBG protein, full-length, on the cell surface (human) (UniProt Q13641); assay: FACS, HEK293 clone 293F-hTPBG 4G6
[13] = biological target: human TPBG protein, full-length, on the cell surface (human) (UniProt Q13641); assay: FACS, HEK293 clone 293F-hTPBG 5A9
[14] = biological target: human TPBG protein, full-length, on the cell surface (human) (UniProt Q13641); assay: FACS, HEK293 clone 293F-hTPBG 5D4
[15] = biological target: human TPBG protein, full-length, on the cell surface (human) (UniProt Q13641); assay: FACS, HEK293 clone 293F-hTPBG 5E5
[16] = biological target: human TPBG protein, full-length, on the cell surface (human) (UniProt Q13641); assay: FACS, HEK293 clone 293F-hTPBG 5E6
[17] = biological target: human TPBG protein, full-length, on the cell surface (human) (UniProt Q13641); assay: FACS, HEK293 clone 293F-hTPBG 5G8
[18] = biological target: human TPBG protein, full-length, on the cell surface (human) (UniProt Q13641); assay: FACS, HEK293 clone 293F-hTPBG 5H6
[19] = biological target: human TPBG protein, full-length, on the cell surface (human) (UniProt Q13641); assay: FACS, HEK293 clone 293F-hTPBG 4H12
[20] = biological target: human TPBG protein, full-length, on the cell surface (human) (UniProt Q13641); assay: FACS, HEK293 clone 293F-hTPBG 5A11
[21] = biological target: human TPBG protein, full-length, on the cell surface (human) (UniProt Q13641); assay: FACS, HEK293 clone 293F-hTPBG 5C12
[22] = biological target: human TPBG protein, full-length, on the cell surface (human) (UniProt Q13641); assay: FACS, HEK293 clone 293F-hTPBG 5G11
[23] = biological target: human TPBG protein, full-length, on the cell surface (human) (UniProt Q13641); assay: FACS, HEK293 clone 293F-hTPBG 4E1 (NO 8)
human TPBG-hFc protein [24] = biological target: T1, human TPBG-hFc protein (human, UniProt Q13641 32-355); assay: ELISA, coated human TPBG-hFc 1.0 ug/mL; control IgG at 2 nM
T1 construct: range 32-355; Expressed in HEK293 cells, purified on protein A; also called immunogen A; hFc tagged TPBG protein; not shown: human IgG Fc fragment of the pCpC vector
T1 sequence (looked up): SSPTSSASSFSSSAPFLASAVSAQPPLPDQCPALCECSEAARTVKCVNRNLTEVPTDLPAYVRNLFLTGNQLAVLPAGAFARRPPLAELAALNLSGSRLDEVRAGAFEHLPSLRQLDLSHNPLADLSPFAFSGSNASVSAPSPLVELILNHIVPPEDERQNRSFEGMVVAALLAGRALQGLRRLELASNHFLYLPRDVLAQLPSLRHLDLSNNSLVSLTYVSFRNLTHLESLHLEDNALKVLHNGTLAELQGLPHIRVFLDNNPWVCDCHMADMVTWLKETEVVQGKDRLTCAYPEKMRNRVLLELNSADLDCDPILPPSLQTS

human TPBG-hFc protein [25] = biological target: T1, human TPBG-hFc protein; assay: ELISA, coated human TPBG-hFc 1.0 ug/mL; control IgG at 20 nM
human TPBG-hFc protein [26] = biological target: T1, human TPBG-hFc protein; assay: ELISA, coated human TPBG-hFc 1.0 ug/mL; control IgG at 0.2 nM
human TPBG-hFc protein [27] = biological target: T1, human TPBG-hFc protein; assay: ELISA, coated human TPBG-hFc 1.0 ug/mL; control IgG at 200 nM
human TPBG-hFc protein [28] = biological target: T1, human TPBG-hFc protein; assay: ELISA, coated human TPBG-hFc 1.0 ug/mL; control IgG at 0.02 nM
human TPBG-hFc protein [29] = biological target: T1, human TPBG-hFc protein; assay: ELISA, coated human TPBG-hFc 1.0 ug/mL; control IgG at 0.002 nM
human TPBG-hFc protein [30] = biological target: T1, human TPBG-hFc protein; assay: ELISA, coated human TPBG-hFc 1.0 ug/mL; control IgG at 0.0002 nM

mouse IgG (isotype control) (antibody)
Cellular MFI [1]: 2.38 MFI
Cellular MFI [2]: 3.24 MFI
Cellular MFI [3]: 2.66 MFI
Cellular MFI [4]: 3.1 MFI
Cellular MFI [5]: 6.3 MFI
Cellular MFI [6]: 6.3 MFI
Cellular MFI [7]: 3.2 MFI
Cellular MFI [8]: 5.6 MFI
Cellular MFI [9]: 5.2 MFI
Cellular MFI [10]: 3.9 MFI
Cellular MFI [11]: 4 MFI
Cellular MFI [12]: 3.1 MFI
Cellular MFI [13]: 5 MFI
Cellular MFI [14]: 3 MFI
Cellular MFI [15]: 5.6 MFI
Cellular MFI [16]: 2.6 MFI
Cellular MFI [17]: 6 MFI
Cellular MFI [18]: 3 MFI
Cellular MFI [19]: 4 MFI
Cellular MFI [20]: 4.6 MFI
Cellular MFI [21]: 3.7 MFI
Cellular MFI [22]: 4.1 MFI
Cellular MFI [23]: 4.8 MFI
OD450 nm (human TPBG-hFc protein [24]): 0.1 OD450 nm
OD450 nm (human TPBG-hFc protein [25]): 0.11 OD450 nm
OD450 nm (human TPBG-hFc protein [26]): 0.11 OD450 nm
OD450 nm (human TPBG-hFc protein [27]): 0.24 OD450 nm
OD450 nm (human TPBG-hFc protein [28]): 0.1 OD450 nm
OD450 nm (human TPBG-hFc protein [29]): 0.1 OD450 nm
OD450 nm (human TPBG-hFc protein [30]): 0.11 OD450 nm
